Data reported in the MegaScale stability set (Tsuboyama et al. 2023).

B1: r11_951_TrROS_Hall (parent)
chain: KKKYVIKVYFEDTGKEVEIEAESKEEALEAAKRLAEELGLKIKKVEIYP

Variants of: B1
Experiment: folding stability dG (cDNA display proteolysis); higher = more stable
Settings: PBS, room temperature

| Variant | folding stability dG |
| --- | --- |
| KKKYVIKVYFEDTGKEVEIEAESKEEALEAMKRLAEELGLKIKKVEIYP [A31M] | 4.4 kcal/mol |
| KKKYVIKVYFEDTGKEVEIEAESKEEALEAAKILAEELGLKIKKVEIYP [R33I] | 4.28 kcal/mol |
| KKKYVIKVYFEDTGKEVEIEAESKEEALEAAKWLAEELGLKIKKVEIYP [R33W] | 4.65 kcal/mol |
| KKKYVIKVYFEDTGKEVEIEAESKEEALEAAKLLAEELGLKIKKVEIYP [R33L] | 4.23 kcal/mol |
| KKKYVIKVYFEDTGKEVEIEAESKEEALEAAKTLAEELGLKIKKVEIYP [R33T] | 4.18 kcal/mol |
| KKKYVIKVYFEDTGKEVEIEAESKEEALEAAKHLAEELGLKIKKVEIYP [R33H] | 4.18 kcal/mol |
| KKKYVIKVYFEDTGKEVEIEAESKEEALEAAKKLAEELGLKIKKVEIYP [R33K] | 4.39 kcal/mol |
| KKKYVIKVYFEDTGKEVEIEAESKEEALEAAKQLAEELGLKIKKVEIYP [R33Q] | 4.02 kcal/mol |
| KKKYVIKVYFEDTGKEVEIEAESKEEALEAAKELAEELGLKIKKVEIYP [R33E] | 4.03 kcal/mol |
| KKKYVIKVYFEDTGKEVEIEAESKEEALEAAKDLAEELGLKIKKVEIYP [R33D] | 4.09 kcal/mol |
| KKKYVIKVYFEDTGKEVEIEAESKEEALEAAKSLAEELGLKIKKVEIYP [R33S] | 4.2 kcal/mol |
| KKKYVIKVYFEDTGKEVEIEAESKEEALEAAKMLAEELGLKIKKVEIYP [R33M] | 4.32 kcal/mol |
| KKKYVIKVYFEDTGKEVEIEAESKEEALEAAKGLAEELGLKIKKVEIYP [R33G] | 4.21 kcal/mol |
| KKKYVIKVYFEDTGKEVEIEAESKEEALEAAKPLAEELGLKIKKVEIYP [R33P] | 2.02 kcal/mol |
| KKKYVIKVYFEDTGKEVEIEAESKEEALEAAKVLAEELGLKIKKVEIYP [R33V] | 4.22 kcal/mol |
| KKKYVIKVYFEDTGKEVEIEAESKEEALEAAKALAEELGLKIKKVEIYP [R33A] | 4.04 kcal/mol |
| KKKYVIKVYFEDTGKEVEIEAESKEEALEAAKNLAEELGLKIKKVEIYP [R33N] | 4.22 kcal/mol |
| KKKYVIKVYFEDTGKEVEIEAESKEEALEAAKFLAEELGLKIKKVEIYP [R33F] | 4.38 kcal/mol |
| KKKYVIKVYFEDTGKEVEIEAESKEEALEAAKCLAEELGLKIKKVEIYP [R33C] | 4.17 kcal/mol |
| KKKYVIKVYFEDTGKEVEIEAESKEEALEEAKRLAEELGLKIKKVEIYP [A30E] | 4.31 kcal/mol |
| KKKYVIKVYFEDTGKEVEIEAESKEEALEMAKRLAEELGLKIKKVEIYP [A30M] | 4.47 kcal/mol |
| KKKYVIKVYFEDTGKEVEIEAESKEEALELAKRLAEELGLKIKKVEIYP [A30L] | 4.66 kcal/mol |
| KKKYVIKVYFEDTGKEVEIEAESKEEALEIAKRLAEELGLKIKKVEIYP [A30I] | 4.49 kcal/mol |
| KKKYVIKVYFEDTGKEVEIEAESKEEALECAKRLAEELGLKIKKVEIYP [A30C] | 4.16 kcal/mol |
| KKKYVIKVYFEDTGKEVEIEAESKEEALEKAKRLAEELGLKIKKVEIYP [A30K] | 4.33 kcal/mol |
| KKKYVIKVYFEDTGKEVEIEAESKEEALENAKRLAEELGLKIKKVEIYP [A30N] | 4.41 kcal/mol |
| KKKYVIKVYFEDTGKEVEIEAESKEEALEYAKRLAEELGLKIKKVEIYP [A30Y] | 4.89 kcal/mol |

| Variant | folding stability dG |
| --- | --- |
| KKKYVIKVYFEDTGKEVEIEAESKEEALEDAKRLAEELGLKIKKVEIYP [A30D] | 4.16 kcal/mol |
| KKKYVIKVYFEDTGKEVEIEAESKEEALEGAKRLAEELGLKIKKVEIYP [A30G] | 4.4 kcal/mol |
| KKKYVIKVYFEDTGKEVEIEAESKEEALEHAKRLAEELGLKIKKVEIYP [A30H] | 4.57 kcal/mol |
| KKKYVIKVYFEDTGKEVEIEAESKEEALEVAKRLAEELGLKIKKVEIYP [A30V] | 4.44 kcal/mol |
| KKKYVIKVYFEDTGKEVEIEAESKEEALETAKRLAEELGLKIKKVEIYP [A30T] | 4.38 kcal/mol |
| KKKYVIKVYFEDTGKEVEIEAESKEEALEPAKRLAEELGLKIKKVEIYP [A30P] | 2.07 kcal/mol |
| KKKYVIKVYFEDTGKEVEIEAESKEEALERAKRLAEELGLKIKKVEIYP [A30R] | 4.58 kcal/mol |
| KKKYVIKVYFEDTGKEVEIEAESKEEALEFAKRLAEELGLKIKKVEIYP [A30F] | 4.66 kcal/mol |
| KKKYVIKVYFEDTGKEVEIEAESKEEALEQAKRLAEELGLKIKKVEIYP [A30Q] | 4.44 kcal/mol |
| KKKYVIKVYFEDTGKEVEIEAESKEEALESAKRLAEELGLKIKKVEIYP [A30S] | 4.45 kcal/mol |
| KKKYVIKVYFEDTGKEVEIEAESKEEALAAAKRLAEELGLKIKKVEIYP [E29A] | 4.75 kcal/mol |
| KKKYVIKVYFEDTGKEVEIEAESKEEALVAAKRLAEELGLKIKKVEIYP [E29V] | 4.53 kcal/mol |
| KKKYVIKVYFEDTGKEVEIEAESKEEALKAAKRLAEELGLKIKKVEIYP [E29K] | 4.53 kcal/mol |
| KKKYVIKVYFEDTGKEVEIEAESKEEALQAAKRLAEELGLKIKKVEIYP [E29Q] | 4.22 kcal/mol |
| KKKYVIKVYFEDTGKEVEIEAESKEEALMAAKRLAEELGLKIKKVEIYP [E29M] | 4.77 kcal/mol |
| KKKYVIKVYFEDTGKEVEIEAESKEEALIAAKRLAEELGLKIKKVEIYP [E29I] | 4.48 kcal/mol |
| KKKYVIKVYFEDTGKEVEIEAESKEEALHAAKRLAEELGLKIKKVEIYP [E29H] | 4.51 kcal/mol |
| KKKYVIKVYFEDTGKEVEIEAESKEEALTAAKRLAEELGLKIKKVEIYP [E29T] | 4.71 kcal/mol |
| KKKYVIKVYFEDTGKEVEIEAESKEEALLAAKRLAEELGLKIKKVEIYP [E29L] | 4.94 kcal/mol |
| KKKYVIKVYFEDTGKEVEIEAESKEEALPAAKRLAEELGLKIKKVEIYP [E29P] | 3.83 kcal/mol |
| KKKYVIKVYFEDTGKEVEIEAESKEEALSAAKRLAEELGLKIKKVEIYP [E29S] | 4.56 kcal/mol |
| KKKYVIKVYFEDTGKEVEIEAESKEEALGAAKRLAEELGLKIKKVEIYP [E29G] | 4.29 kcal/mol |
| KKKYVIKVYFEDTGKEVEIEAESKEEALCAAKRLAEELGLKIKKVEIYP [E29C] | 4.58 kcal/mol |
| KKKYVIKVYFEDTGKEVEIEAESKEEALNAAKRLAEELGLKIKKVEIYP [E29N] | 4.53 kcal/mol |
| KKKYVIKVYFEDTGKEVEIEAESKEEALRAAKRLAEELGLKIKKVEIYP [E29R] | 4.64 kcal/mol |
| KKKYVIKVYFEDTGKEVEIEAESKEEALDAAKRLAEELGLKIKKVEIYP [E29D] | 4.44 kcal/mol |
